Measured values taken from IntAct's records for PubMed 28319063.

B1: Partner and localizer of BRCA2 (Mus musculus), Q3U0P1 (parent)
chain: MEELSGKPLSYAEKEKLKEKLAFLKKEYSRTLARLQRAKRAEKAKNSKKAIEDGVPQPEASSQLSHSESINKGFPCDTLQSNHLDEETGENISQILDVEPQSFNCKQGKEVLHTPRAGDIQGQLLHSTSSPDGKKEQNTLPGTTKTPWEKSSVSQEKEDYFDTNSLALLGKHRKGQESISRKNSRTPVSEKTHLLSLRSQIPDPPALVTGIGEGILIPPSGKSERGIDTLVRGNTVSAEAAVPSCTASNSNHSQHLEHTPPKSGCKITTQGPASSTNLVAQDQKMTIFTVNSVVYKAVRAHGQLPGSPNSCSVNDLTHSNLPANSTPNSKSLKSPSNTVDERNEPLQEDEILGPSKNFNLAAVSPPSTESQIHSCTMLEGLLFPAEYYVRTTRRMSDCQRKIALEAVIQSHLGVKKKELKKKTKATKAVVLSSEDTDQSESGMLDTSTGQSSSGSLSQKLLSPAEVSSPPGPAGKATTPPPGRGHRGKRKSARTSTLGHCQLLFPPCAALAVNRSKGKFTKHKCQNRGVVIHDFELPDEDFGLLKLEKLKSCSEKLIESPDSKNCGERLPREGNHAALEELQRDSETEGLEEELTVPPGEAYRPGPTLRRQPGSKDLSSSIVLFTPADTAAPNDSGRPPPSLCSPAFPILGMTPALGSQAAGETLSTEAAQPCSTSQPPLLGDTNSLVNNSKQCNSSACSPKPDTNLQASGRQGQPACDSDSGPQATPLPVESFTFRENQLCGNACLELHEHSTEQTETADRPACDNLNPGNLQLVSELKNPSSSCSVDVSAMWWERAGAKEPCIVTACEDVVSLWKPLNSLQWEKVHTWHFTEVPVLQIVPVPDVYNLICVALGSLEIREIRALLCSSGDDSEKQVLLKSGDIKAMLGLTKRRLVSSTGTFCNQQIQIMTFADDGSSKDEQLLMPPDETVLTFAEVQGTQEALLGTTTVNSIVIWNLKTGQLLKKMHIDDSYQASVCHGAYSEKGLLFVVVSQPCAKESQALGSPVFQLLVINPKTAQSVGVLLCSLPQGQAGRFLEGDVKDHVAAAVLTSGTIAIWDLLLGHCTALLPPVSDQSWSLVKWSGTDSHLLAGQKDGNIFIYRYF

Variants of: B1
Details: with brca1_human BRCA1, P38398
Chain of brca1_human BRCA1, P38398 (P38398 whole entry, looked up): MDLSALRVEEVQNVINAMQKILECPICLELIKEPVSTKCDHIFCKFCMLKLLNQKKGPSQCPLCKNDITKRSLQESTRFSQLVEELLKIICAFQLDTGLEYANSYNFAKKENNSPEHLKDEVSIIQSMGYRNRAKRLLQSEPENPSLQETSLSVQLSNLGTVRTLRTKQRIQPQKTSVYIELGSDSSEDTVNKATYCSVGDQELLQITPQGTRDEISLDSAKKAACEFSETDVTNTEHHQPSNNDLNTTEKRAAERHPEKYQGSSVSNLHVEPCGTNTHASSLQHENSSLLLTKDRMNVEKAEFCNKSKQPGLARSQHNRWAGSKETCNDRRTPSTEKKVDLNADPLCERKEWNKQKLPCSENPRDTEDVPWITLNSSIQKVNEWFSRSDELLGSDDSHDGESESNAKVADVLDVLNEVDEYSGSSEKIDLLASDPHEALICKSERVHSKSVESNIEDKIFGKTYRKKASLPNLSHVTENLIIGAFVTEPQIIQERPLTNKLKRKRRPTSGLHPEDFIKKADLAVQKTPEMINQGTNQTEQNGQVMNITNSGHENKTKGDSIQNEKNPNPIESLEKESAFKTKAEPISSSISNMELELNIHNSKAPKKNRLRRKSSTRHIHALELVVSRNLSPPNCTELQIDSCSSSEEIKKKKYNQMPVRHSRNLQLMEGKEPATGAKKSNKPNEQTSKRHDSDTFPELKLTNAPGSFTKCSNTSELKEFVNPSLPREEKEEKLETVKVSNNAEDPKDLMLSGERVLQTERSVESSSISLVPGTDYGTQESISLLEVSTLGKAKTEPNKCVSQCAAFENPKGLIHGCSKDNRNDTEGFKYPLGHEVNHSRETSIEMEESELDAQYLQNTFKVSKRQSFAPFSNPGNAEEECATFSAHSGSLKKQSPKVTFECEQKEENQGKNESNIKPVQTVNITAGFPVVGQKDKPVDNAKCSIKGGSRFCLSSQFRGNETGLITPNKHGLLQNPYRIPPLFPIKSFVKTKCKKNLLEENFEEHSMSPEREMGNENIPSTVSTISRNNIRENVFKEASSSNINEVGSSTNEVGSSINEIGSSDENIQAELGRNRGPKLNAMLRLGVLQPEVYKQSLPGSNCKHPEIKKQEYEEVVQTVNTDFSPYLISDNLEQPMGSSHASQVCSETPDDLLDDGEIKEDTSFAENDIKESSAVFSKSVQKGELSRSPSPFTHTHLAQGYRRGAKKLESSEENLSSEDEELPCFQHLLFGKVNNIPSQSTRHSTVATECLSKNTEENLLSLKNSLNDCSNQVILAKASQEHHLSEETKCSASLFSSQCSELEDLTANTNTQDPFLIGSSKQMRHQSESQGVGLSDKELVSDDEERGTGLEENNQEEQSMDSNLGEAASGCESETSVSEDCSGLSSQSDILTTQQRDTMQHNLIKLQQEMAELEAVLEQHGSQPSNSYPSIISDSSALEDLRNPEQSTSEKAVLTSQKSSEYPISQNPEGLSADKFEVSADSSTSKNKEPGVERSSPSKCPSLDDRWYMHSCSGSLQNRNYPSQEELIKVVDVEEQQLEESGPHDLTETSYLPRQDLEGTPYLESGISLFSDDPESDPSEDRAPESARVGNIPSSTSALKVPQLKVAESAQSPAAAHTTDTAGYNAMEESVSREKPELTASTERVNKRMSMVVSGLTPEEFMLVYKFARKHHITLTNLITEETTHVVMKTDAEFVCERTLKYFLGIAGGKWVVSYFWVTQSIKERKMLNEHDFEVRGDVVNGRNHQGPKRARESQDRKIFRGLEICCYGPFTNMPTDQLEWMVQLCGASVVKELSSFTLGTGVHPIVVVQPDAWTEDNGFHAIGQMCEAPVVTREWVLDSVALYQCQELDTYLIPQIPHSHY

Variant | effect of a mutation on the interaction
K18R | with no effect
Y28C | disrupting interaction
L35P | disrupting interaction
R37H | with no effect
